Data as given in patent US20230399406A1.

Biological target: human PD-L1 (programmed death-ligand 1) (human) (UniProt Q9NZQ7)
Experiment: cell-based or functional assay

Sequence of UniProt Q9NZQ7 (Q9NZQ7 19-290): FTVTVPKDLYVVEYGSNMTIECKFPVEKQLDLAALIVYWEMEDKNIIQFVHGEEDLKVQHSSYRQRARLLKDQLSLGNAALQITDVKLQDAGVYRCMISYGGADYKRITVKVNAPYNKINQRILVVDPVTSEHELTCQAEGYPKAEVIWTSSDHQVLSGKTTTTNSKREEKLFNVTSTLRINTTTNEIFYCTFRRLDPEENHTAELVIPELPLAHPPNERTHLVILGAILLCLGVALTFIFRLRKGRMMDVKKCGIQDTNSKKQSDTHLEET

For Untargeted (BcII10 VHH) chimera, the STAT1 phosphorylation (phospho STAT1 MFI, FACS) in MDA-MB-321 cells was 100 ng/mL.
